The target in assay [1] is N-terminally 6×His-tagged FilP expressed in E. coli (Streptomyces coelicolor). The assay can be described thus: turbidity (light scattering at 350 nm); His-N-FilP at 20-200 μg/ml dialysed against Tris assembly buffer; 96-well plate.
The target is the same in assay [2]. The assay is described as follows: ultracentrifugation sedimentation assay; His-N-FilP 200 μg/ml dialysed against Tris pH 8.8; 135,000-300,000g, 15-30 min, 25°C.
For assay [3] the target is unchanged. The assay is described as follows: ultracentrifugation sedimentation assay; His-N-FilP 200 μg/ml dialysed against 50 mM Tris-HCl pH 6.8 with 1 M NaCl; 135,000-300,000g, 15-30 min, 25°C.
The target is the same in assay [4]. The assay is described as above. The source holds these as a separate data set.
The target is the same in assay [5]. The assay can be described thus: ultracentrifugation sedimentation assay; His-N-FilP 200 μg/ml dialysed against 50 mM Tris-HCl pH 6.8 with 0.2 M KCl; 135,000-300,000g, 15-30 min, 25°C.
Assay [6] shares this target. The assay can be described thus: ultracentrifugation sedimentation assay; His-N-FilP 200 μg/ml dialysed against 50 mM Tris-HCl pH 6.8 with 5 mM MgCl2; 135,000-300,000g, 15-30 min, 25°C.
Assay [7] has the same target. The assay can be described thus: ultracentrifugation sedimentation assay; His-N-FilP 200 μg/ml dialysed against 50 mM Tris-HCl pH 6.8 with 0.2 M KCl and 1 M NaCl; 135,000-300,000g, 15-30 min, 25°C.

Take “N-terminally 6×His-tagged FilP expressed in E. coli (natural protein)”: in assay [1], the critical concentration for filamentation is 33 µg/mL. The same substance showed a percent of total FilP soluble (in the supernatant after ultracentrifugation) in assay [2] of 32%. For the same substance, the percent of added protein recovered in the supernatant after ultracentrifugation was found to be 35% in assay [3]; 40% in assay [4]; 25% in assay [5]; 11% in assay [6]; 63% in assay [7].

The record behind these values is article PMC6599971.
